Experiments:
Assay in all cases: ELISA signal over HTRF expression signal, P. pastoris
Details in all cases: remark: other sources report otherwise
26H1 = biological target: 26H1
29C2 = biological target: 29C2
55G7 = biological target: 55G7
6E12 = biological target: 6E12
75E9 = biological target: 75E9
78G2 = biological target: 78G2
79D5 = biological target: 79D5
81F11 = biological target: 81F11
84D3 = biological target: 84D3
86F1 = biological target: 86F1
8A10 = biological target: 8A10
8D7 = biological target: 8D7
91C4 = biological target: 91C4
91C8 = biological target: 91C8
96A7 = biological target: 96A7
9C10 = biological target: 9C10

B1: CR6261 (antibody, V domains shown)
VH: EVQLVESGAEVKKPGSSVKVSCKASGGPFRSYAISWVRQAPGQGPEWMGGIIPIFGTTKYAPKFQGRVTITADDFAGTVYMELSSLRSEDTAMYYCAKHMGYQVRETMDVWGKGTTVTVSS
VL: QSVLTQPPSVSAAPGQKVTISCSGSSSNIGNDYVSWYQQLPGTAPKLLIYDNNKRPSGIPDRFSGSKSGTSATLGITGLQTGDEANYYCATWDRRPTAYVVFGGGTKLTVLG
Binder B1 has a fold increase of ratio over parental SEQ ID NO: 6 (26H1) of 1.62, a ratio (binding signal/HTRF signal) (26H1) of 9.64 and a fold increase of ratio over parental SEQ ID NO: 6 (29C2) of 2.32. It also gave a ratio (binding signal/HTRF signal) (29C2) of 13.8, a fold increase of ratio over parental SEQ ID NO: 6 (55G7) of 11.8 and a ratio (binding signal/HTRF signal) (55G7) of 70.3. The fold increase of ratio over parental SEQ ID NO: 6 (6E12) was 2.85, the ratio (binding signal/HTRF signal) (6E12) was 16.9 and the fold increase of ratio over parental SEQ ID NO: 6 (75E9) was 2.17. It also gave a ratio (binding signal/HTRF signal) (75E9) of 12.9, a fold increase of ratio over parental SEQ ID NO: 6 (78G2) of 1.58 and a ratio (binding signal/HTRF signal) (78G2) of 9.36. For the same binder, the fold increase of ratio over parental SEQ ID NO: 6 (79D5) was 8.46, the ratio (binding signal/HTRF signal) (79D5) was 50.2 and the fold increase of ratio over parental SEQ ID NO: 6 (81F11) was 5.37. The ratio (binding signal/HTRF signal) (81F11) was 31.9, the fold increase of ratio over parental SEQ ID NO: 6 (84D3) was 4.87 and the ratio (binding signal/HTRF signal) (84D3) was 28.9. The fold increase of ratio over parental SEQ ID NO: 6 (86F1) was 2.92, the ratio (binding signal/HTRF signal) (86F1) was 17.4 and the fold increase of ratio over parental SEQ ID NO: 6 (8A10) was 6.29. For the same binder, the ratio (binding signal/HTRF signal) (8A10) was 37.4, the fold increase of ratio over parental SEQ ID NO: 6 (8D7) was 1.69 and the ratio (binding signal/HTRF signal) (8D7) was 10. The fold increase of ratio over parental SEQ ID NO: 6 (91C4) was 4.35, the ratio (binding signal/HTRF signal) (91C4) was 25.8 and the fold increase of ratio over parental SEQ ID NO: 6 (91C8) was 3.51. For the same binder, the ratio (binding signal/HTRF signal) (91C8) was 20.8, the fold increase of ratio over parental SEQ ID NO: 6 (96A7) was 1.85 and the ratio (binding signal/HTRF signal) (96A7) was 11. The fold increase of ratio over parental SEQ ID NO: 6 (9C10) was 2.91 and the ratio (binding signal/HTRF signal) (9C10) was 17.3.

Reference: patent US20170209564A1
